T1: Mcm4 (Saccharomyces cerevisiae, UniProt P30665 1-933)
T1 sequence: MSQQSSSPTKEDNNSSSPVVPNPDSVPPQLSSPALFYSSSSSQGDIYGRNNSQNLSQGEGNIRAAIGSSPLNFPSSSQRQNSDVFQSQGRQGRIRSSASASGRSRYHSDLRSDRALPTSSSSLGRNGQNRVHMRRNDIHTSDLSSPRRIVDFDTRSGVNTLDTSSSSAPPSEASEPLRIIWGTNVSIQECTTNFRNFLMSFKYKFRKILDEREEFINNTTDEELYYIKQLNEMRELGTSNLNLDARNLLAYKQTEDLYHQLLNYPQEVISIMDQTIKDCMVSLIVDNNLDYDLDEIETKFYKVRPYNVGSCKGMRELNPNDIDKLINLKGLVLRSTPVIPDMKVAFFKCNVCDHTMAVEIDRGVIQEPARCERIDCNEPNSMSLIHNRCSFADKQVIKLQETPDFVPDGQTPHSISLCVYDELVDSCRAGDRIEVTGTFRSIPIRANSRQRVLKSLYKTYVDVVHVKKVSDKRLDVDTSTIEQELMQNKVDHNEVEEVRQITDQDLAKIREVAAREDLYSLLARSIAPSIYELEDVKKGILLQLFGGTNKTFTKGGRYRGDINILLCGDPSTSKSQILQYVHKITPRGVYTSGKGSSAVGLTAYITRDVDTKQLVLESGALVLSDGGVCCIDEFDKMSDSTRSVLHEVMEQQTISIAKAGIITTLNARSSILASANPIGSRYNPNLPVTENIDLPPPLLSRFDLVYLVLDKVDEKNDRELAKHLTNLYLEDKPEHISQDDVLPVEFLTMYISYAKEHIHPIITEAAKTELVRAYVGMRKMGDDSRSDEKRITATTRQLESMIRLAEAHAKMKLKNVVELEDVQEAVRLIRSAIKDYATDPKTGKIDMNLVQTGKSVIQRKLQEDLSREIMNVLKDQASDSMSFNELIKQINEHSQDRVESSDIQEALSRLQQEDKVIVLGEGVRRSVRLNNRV

T2: Mcm7 (Saccharomyces cerevisiae, UniProt P38132 1-845)
T2 sequence: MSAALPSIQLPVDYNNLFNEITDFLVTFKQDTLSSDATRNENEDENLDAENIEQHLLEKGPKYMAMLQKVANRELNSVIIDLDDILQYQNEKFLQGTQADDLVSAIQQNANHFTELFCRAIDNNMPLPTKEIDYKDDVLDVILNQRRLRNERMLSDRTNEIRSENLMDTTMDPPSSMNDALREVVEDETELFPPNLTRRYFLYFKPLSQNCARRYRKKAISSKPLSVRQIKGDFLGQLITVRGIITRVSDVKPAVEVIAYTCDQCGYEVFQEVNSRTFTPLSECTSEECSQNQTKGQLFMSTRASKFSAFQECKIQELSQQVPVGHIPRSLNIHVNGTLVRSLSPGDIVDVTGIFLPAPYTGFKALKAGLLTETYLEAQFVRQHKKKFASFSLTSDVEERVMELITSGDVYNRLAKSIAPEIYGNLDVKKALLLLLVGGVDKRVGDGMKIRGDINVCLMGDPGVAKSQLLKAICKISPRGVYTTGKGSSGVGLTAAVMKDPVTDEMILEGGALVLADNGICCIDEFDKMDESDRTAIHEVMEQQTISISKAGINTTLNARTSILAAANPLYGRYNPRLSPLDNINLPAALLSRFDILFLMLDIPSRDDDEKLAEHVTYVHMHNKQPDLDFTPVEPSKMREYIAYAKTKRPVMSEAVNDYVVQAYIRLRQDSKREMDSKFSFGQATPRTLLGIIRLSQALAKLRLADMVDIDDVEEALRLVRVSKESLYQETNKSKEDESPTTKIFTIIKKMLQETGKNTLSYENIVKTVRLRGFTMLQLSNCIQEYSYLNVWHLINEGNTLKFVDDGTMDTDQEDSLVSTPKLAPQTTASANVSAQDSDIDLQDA

B1: Mcm3 (natural protein)
chain: MEGSTGFDGDATTFFAPDAVFGDRVRRFQEFLDTFTSYRDSVRSIQVYNSNNAANYNDDQDDADERDLLGDDDGDDLEKEKKAASSTSLNILPHRIIISLDDLREFDRSFWSGILVEPAYFIPPAEKALTDLADSMDDVPHPNASAVSSRHPWKLSFKGSFGAHALSPRTLTAQHLNKLVSVEGIVTKTSLVRPKLIRSVHYAAKTGRFHYRDYTDATTTLTTRIPTPAIYPTEDTEGNKLTTEYGYSTFIDHQRITVQEMPEMAPAGQLPRSIDVILDDDLVDKTKPGDRVNVVGVFKSLGAGGMNQSNSNTLIGFKTLILGNTVYPLHARSTGVAARQMLTDFDIRNINKLSKKKDIFDILSQSLAPSIYGHDHIKKAILLMLMGGVEKNLENGSHLRGDINILMVGDPSTAKSQLLRFVLNTASLAIATTGRGSSGVGLTAAVTTDRETGERRLEAGAMVLADRGVVCIDEFDKMTDVDRVAIHEVMEQQTVTIAKAGIHTTLNARCSVIAAANPVFGQYDVNRDPHQNIALPDSLLSRFDLLFVVTDDINEIRDRSISEHVLRTHRYLPPGYLEGEPVRERLNLSLAVGEDADINPEEHSNSGAGVENEGEDDEDHVFEKFNPLLQAGAKLAKNKGNYNGTEIPKLVTIPFLRKYVQYAKERVIPQLTQEAINVIVKNYTDLRNDDNTKKSPITARTLETLIRLATAHAKVRLSKTVNKVDAKVAANLLRFALLGEDIGNDIDEEESEYEEALSKRSPQKSPKKRQRVRQPASNSGSPIKSTPRRSTASSVNATPSSARRILRFQDDEQNAGEDDNDIMSPLPADEEAELQRRLQLGLRVSPRRREHLHAPEEGSSGPLTEVGTPRLPNVSSAGQDDEQQQSVISFDNVEPGTISTGRLSLISGIIARLMQTEIFEEESYPVASLFERINEELPEEEKFSAQEYLAGLKIMSDRNNLMVADDKVWRV

Key:
Experiment in all cases: SEC + co-IP
Mcm3 = target: B1
Mcm4 = target: T1, Mcm4
Mcm6 = Mcm6 (Saccharomyces cerevisiae, UniProt P53091 1-1017)
Mcm7 = target: T2, Mcm7

Mcm6, sequence (P53091 whole entry): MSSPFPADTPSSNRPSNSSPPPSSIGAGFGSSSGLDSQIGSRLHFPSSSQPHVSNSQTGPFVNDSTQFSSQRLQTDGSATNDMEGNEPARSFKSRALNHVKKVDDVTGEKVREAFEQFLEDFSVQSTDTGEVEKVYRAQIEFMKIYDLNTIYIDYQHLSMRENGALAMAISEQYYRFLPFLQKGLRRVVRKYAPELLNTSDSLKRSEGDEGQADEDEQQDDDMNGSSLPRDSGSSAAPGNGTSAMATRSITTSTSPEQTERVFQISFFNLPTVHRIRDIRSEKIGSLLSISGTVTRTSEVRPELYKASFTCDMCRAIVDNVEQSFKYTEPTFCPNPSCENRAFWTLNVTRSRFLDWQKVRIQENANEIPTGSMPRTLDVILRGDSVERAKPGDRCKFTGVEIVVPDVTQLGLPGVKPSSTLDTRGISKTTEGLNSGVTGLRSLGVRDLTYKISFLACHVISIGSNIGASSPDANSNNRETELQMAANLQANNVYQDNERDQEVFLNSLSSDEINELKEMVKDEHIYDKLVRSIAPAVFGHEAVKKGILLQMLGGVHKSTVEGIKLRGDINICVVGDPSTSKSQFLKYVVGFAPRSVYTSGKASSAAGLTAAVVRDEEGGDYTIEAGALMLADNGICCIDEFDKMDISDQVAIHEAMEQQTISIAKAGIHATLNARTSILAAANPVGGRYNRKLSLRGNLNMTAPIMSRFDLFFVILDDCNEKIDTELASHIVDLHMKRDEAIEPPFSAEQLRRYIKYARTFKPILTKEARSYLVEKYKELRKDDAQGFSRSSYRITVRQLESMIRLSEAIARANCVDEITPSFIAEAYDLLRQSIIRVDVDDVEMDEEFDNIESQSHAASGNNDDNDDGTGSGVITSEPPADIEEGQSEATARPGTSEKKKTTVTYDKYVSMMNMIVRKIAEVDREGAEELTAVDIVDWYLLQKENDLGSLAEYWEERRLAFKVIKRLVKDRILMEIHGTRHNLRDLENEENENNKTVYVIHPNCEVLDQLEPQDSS

| Binder | binding result (Mcm3) | binding result (Mcm4) | binding result (Mcm6) | binding result (Mcm7) |
| --- | --- | --- | --- | --- |
| Mcm2 (natural protein) MSDNRRRRREEDDSDSENELPPSSPQQHFRGGMNPVSSPIGSPDMINPEGDDNEVDDVPDIDEVEEQMNEVDLMDDNMYEDYAADHNRDRYDPDQVDDREQQELSLSERRRIDAQLNERDRLLRNVAYIDDEDEEQEGAAQLDEMGLPVQRRRRRRQYEDLENSDDDLLSDMDIDPLREELTLESLSNVKANSYSEWITQPNVSRTIARELKSFLLEYTDETGRSVYGARIRTLGEMNSESLEVNYRHLAESKAILALFLAKCPEEMLKIFDLVAMEATELHYPDYARIHSEIHVRISDFPTIYSLRELRESNLSSLVRVTGVVTRRTGVFPQLKYVKFNCLKCGSILGPFFQDSNEEIRISFCTNCKSKGPFRVNGEKTVYRNYQRVTLQEAPGTVPPGRLPRHREVILLADLVDVSKPGEEVEVTGIYKNNYDGNLNAKNGFPVFATIIEANSIKRREGNTANEGEEGLDVFSWTEEEEREFRKISRDRGIIDKIISSMAPSIYGHRDIKTAVACSLFGGVPKNVNGKHSIRGDINVLLLGDPGTAKSQILKYVEKTAHRAVFATGQGASAVGLTASVRKDPITKEWTLEGGALVLADKGVCLIDEFDKMNDQDRTSIHEAMEQQSISISKAGIVTTLQARCSIIAAANPNGGRYNSTLPLAQNVSLTEPILSRFDILCVVRDLVDEEADERLATFVVDSHVRSHPENDEDREGEELKNNGESAIEQGEDEINEQLNARQRRLQRQRKKEEEISPIPQELLMKYIHYARTKIYPKLHQMDMDKVSRVYADLRRESISTGSFPITVRHLESILRIAESFAKMRLSEFVSSYDLDRAIKVVVDSFVDAQKVSVRRQLRRSFAIYTLGH | binds | binds |  |  |
| B1 |  |  | binds |  |
| Mcm5 (natural protein) MSFDRPEIYSAPVLQGESPNDDDNTEIIKSFKNFILEFRLDSQFIYRDQLRNNILVKNYSLTVNMEHLIGYNEDIYKKLSDEPSDIIPLFETAITQVAKRISILSRAQSANNNDKDPENTSMDTDSLLLNSLPTFQLILNSNANQIPLRDLDSEHVSKIVRLSGIIISTSVLSSRATYLSIMCRNCRHTTSITINNFNSITGNTVSLPRSCLSTIESESSMANESNIGDESTKKNCGPDPYIIIHESSKFIDQQFLKLQEIPELVPVGEMPRNLTMTCDRYLTNKVIPGTRVTIVGIYSIYNSKNGAGSGRSGGGNGGSGVAIRTPYIKILGIQSDVETSSIWNSVTMFTEEEEEEFLQLSRNPKLYEILTNSIAPSIFGNEDIKKAIVCLLMGGSKKILPDGMRLRGDINVLLLGDPGTAKSQLLKFVEKVSPIAVYTSGKGSSAAGLTASVQRDPMTREFYLEGGAMVLADGGVVCIDEFDKMRDEDRVAIHEAMEQQTISIAKAGITTVLNSRTSVLAAANPIYGRYDDLKSPGDNIDFQTTILSRFDMIFIVKDDHNEERDISIANHVINIHTGNANAMQNQQEENGSEISIEKMKRYITYCRLKCAPRLSPQAAEKLSSNFVTIRKQLLINELESTERSSIPITIRQLEAIIRITESLAKLELSPIAQERHVDEAIRLFQASTMDAASQDPIGGLNQASGTSLSEIRRFEQELKRRLPIGWSTSYQTLRREFVDTHRFSQLALDKALYALEKHETIQLRHQGQNIYRSGV |  |  | binds | binds |

Reference: PMC2952866 (Nucleic Acids Research, 2010)
